# Laboratory results from IntAct's records for PubMed 21697476.
# B1: Replication and transcription activator (Epstein-Barr virus (strain B95-8) (HHV-4)), P03209 (parent)
# chain: MRPKKDGLEDFLRLTPEIKKQLGSLVSDYCNVLNKEFTAGSVEITLRSYKICKAFINEAKAHGREWGGLMATLNICNFWAILRNNRVRRRAENAGNDACSIACPIVMRYVLDHLIVVTDRFFIQAPSNRVMIPATIGTAMYKLLKHSRVRAYTYSKVLGVDRAAIMASGKQVVEHLNRMEKEGLLSSKFKAFCKWVFTYPVLEEMFQTMVSSKTGHLTDDVKDVRALIKTLPRASYSSHAGQRSYVSGVLPACLLSTKSKAVETPILVSGADRMDEELMGNDGGASHTEARYSESGQFHAFTDELESLPSPTMPLKPGAQSADCGDSSSSSSDSGNSDTEQSEREEARAEAPRLRAPKSRRTSRPNRGQTPCPSNAAEPEQPWIAAVHQESDERPIFPHPSKPTFLPPVKRKKGLRDSREGMFLPKPEAGSAISDVFEGREVCQPKRIRPFHPPGSPWANRPLPASLAPTPTGPVHEPVGSLTPAPVPQPLDPAPAVTPEASHLLEDPDEETSQAVKALREMADTVIPQKEEAAICGQMDLSHPPPRGHLDELTTTLESMTEDLNLDSPLTPELNEILDTFLNDECLLHAMHISTGLSIFDTSLF
# Variants of: B1
# Details: with po2f1_human POU2F1, P14859
# Chain of po2f1_human POU2F1, P14859 (P14859 whole entry): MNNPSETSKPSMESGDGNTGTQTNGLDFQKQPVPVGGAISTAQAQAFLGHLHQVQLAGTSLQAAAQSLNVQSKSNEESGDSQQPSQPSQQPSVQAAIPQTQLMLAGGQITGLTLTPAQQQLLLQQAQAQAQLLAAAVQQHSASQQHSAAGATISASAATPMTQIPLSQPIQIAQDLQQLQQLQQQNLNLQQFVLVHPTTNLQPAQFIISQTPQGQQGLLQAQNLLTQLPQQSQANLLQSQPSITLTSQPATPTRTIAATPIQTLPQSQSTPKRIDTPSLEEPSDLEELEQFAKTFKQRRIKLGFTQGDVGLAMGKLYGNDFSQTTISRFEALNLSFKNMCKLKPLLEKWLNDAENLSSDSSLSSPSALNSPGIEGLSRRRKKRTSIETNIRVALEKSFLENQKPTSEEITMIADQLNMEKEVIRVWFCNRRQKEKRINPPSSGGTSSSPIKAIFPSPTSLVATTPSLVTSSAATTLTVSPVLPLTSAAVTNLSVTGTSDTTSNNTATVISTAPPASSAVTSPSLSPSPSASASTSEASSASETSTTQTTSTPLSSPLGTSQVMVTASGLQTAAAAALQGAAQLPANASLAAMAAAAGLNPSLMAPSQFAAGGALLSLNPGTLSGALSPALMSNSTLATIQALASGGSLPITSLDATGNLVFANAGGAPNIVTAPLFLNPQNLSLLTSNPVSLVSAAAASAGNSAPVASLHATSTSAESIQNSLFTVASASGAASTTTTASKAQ
row,Variant,effect of a mutation on the interaction
1,M140A,decreasing interaction
